Consider 2 molecules from patent publication EP0622394A1, “Reversible modification of sulfur-containing molecules with polyalkylene glycol derivatives and their use” (S.A. LABORATOIRES S.M.B., priority 1993, dated 1994).

Series [1] is described as follows: Infrared spectroscopy (Fourier self-deconvolution, curve fitting of the amide I region): content of secondary structures. The series is classed as physicochemical. The following applies: FTIR amide I region; counter-ions K+ and Cl-; pH 5.0. How it is done:
Spectra were recorded with a Perkin-Elmer infrared spectrometer 983 G equipped with a Perkin-Elmer microspecular reflectance accessory (ref. P.E. 221-0357). The internal reflection element was a Germanium ATR plate (50 x 20 x 2 mm, Harrick EJ 2121) with an aperture angle of 45° yielding 25 […] reflections. The mean stan rate was 15.5 cm⁻¹/minute and up to 20 accumulations were performed when necessary to improve the signal to noise ratio. The spectrophotometer was continuously purged with air dried on a silica gel column (5 x 130 cm) at a flow rate of 7 l/minute. Spectra were recorded at a nominal resolution of 2 cm⁻¹ and encoded every 0.5 cm⁻¹. At the end of the scan, they are transferred from the memory of the spectrophotometer to an Olivetti M 40 itself coupled to an Olivetti M 24 computer Spectra were Fourier transformed and stored for subsequent treatments.
In both cases the S-pegylated protein eluted from the CM-Sephadex C-50 before the irreversibly oxidized material. […] Indeed : 1. […] The proportions of the different secondary structures were determined, as previously described by Cabiaux et al, 1989, J. Biol. Chem., 264:4928-4938, using the frequency regions for the different structures as follows : 1661-1647 cm⁻¹ : α-helix; 1689-1682 + 1637-1615 cm⁻¹ : β-sheet; 1644.5-1637.7 cm⁻¹ : random and 1682-1661 cm⁻¹ : β-turn. […]

Series [2] in a line: Acid denaturation: residual amidase activity after incubation in acidic buffer. Format: physicochemical. The settings on record: 40 µM proteinase, 25°C. How it is done:
Indeed : • 1. […] Similar results were obtained in the case of papain.
Time course dependence of acid denaturation of S-methylthio PP III (---) and S-pegyl (5000) thio PP III (―) at various pH and at 25°C.
At various time intervals, aliquot were removed and assayed for residual amidase activity using the assay method N° 3.

“S-Pegylated Papaya Pectinase III: papaya proteinase III S-pegylated with PEG 5 kDa disulfide derivative”: in series [1], the “PERCENTAGE OF Random” value came out at 8.3, the “PERCENTAGE OF α-Helix” value was found to be 27.9, the “PERCENTAGE OF β-Sheet” value stood at 36.1 and the “PERCENTAGE OF β-Turns” value was 27.7. For the same molecule, the “lowest pH at which solutions remain stable (acid denaturation)” value in series [2] is 2.6.

B1: S-Pegylated papain: papain modified at its thiol with a 5 kDa PEG chain through a disulfide bond (conjugate, UniProt P00784 134-345, looked up)
Papain: IPEYVDWRQKGAVTPVKNQGSCGSCWAFSAVVTIEGIIKIRTGNLNEYSEQELLDCDRRSYGCNGGYPWSALQLVAQYGIHYRNTYPYEGVQRYCRSREKGPYAAKTDGVRQVQPYNEGALLYSIANQPVSVVLEAAGKDFQLYRGGIFVGPCGNKVDHAVAAVGYGPNYILIKNSWGTGWGENGYIRIKRGTGNSYGVCGLYTSSFYPVKN
modifications: S-PEG 5 kDa
notes: papain modified at its thiol with a 5 kDa PEG chain through a disulfide bond
For the molecule B1, in series [1], the “PERCENTAGE OF Random” value is reported as 8.2, the “PERCENTAGE OF α-Helix” value is 28.2 and the “PERCENTAGE OF β-Turns” value stood at 27.0.
